According to the nanobody polyreactivity screen of Harvey et al. (2022):

Assay: yeast display, Sf9 membrane polyspecificity reagent, FACS + sequencing; frameworks hold sequencing errors
Method in brief: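 After 36–48 hours of galactose induction, yeast (Saccharomyces cerevisiae BJ5465) displaying a synthetic nanobody library were stained at 4 °C for 1 hour with 10% biotinylated, detergent-solubilized Sf9 membrane reagent. Streptavidin microbeads enriched the stained cells before FACS sorting into low and high (top ~1%) gates on anti-HA and streptavidin fluorescence. Each clone's polyreactivity label reflects its gate of origin.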

Sequence | polyreactivity (PSR sort gate)
QVQLVESGGGLVQAGGSLRLSCAASGSTFYSNAMGWYRQAPGKERELVAAIDWGGGSTYYADSVKGRFTISRDNAKNTVYLQMNSLKPEDTAVYYCATDANGYYNYDYWGQGTQVTVSS | low polyreactivity
QVQHVESGGGLVQAGGSLRLSCAASGFTFGYYAMGWYRQAPGKERELVAAISGSGGGTYYADSVKGRFTISRDNAKNTVYLQMNSLKPEDTAVYYCNTGRYDRKYDYWGQGTQVTVSS | high polyreactivity
QVQLVESGGGLVQAGGSLRLTCAASGSIFVQNAMGWYRQEPGKERELVATISRRGGSTYYADSVKGRFTISRDNAKNTVYLQMNSLKPEDPAVYYSAARKLRTLWGYWGQGTQVTVSS | high polyreactivity
QVQRVESGGGLVQAGGSLRLSCAASGYTFEAYAMGWYRQAPGKERELVAAITINGGSTYYADSVKGRFTISRDNAKNTVYLQMNSLKPEDTAVYYCAADLFHRAGWYFAYGHWGLGTQVTVSS | low polyreactivity
QVQLVESGGGLVQAGGSLRLSCAASGLTVVIYAMGWYRKAPGKERELVARITCSGGSTYYADSVKGRFTISRDNAKNTVYLQMISLQPEVTAVYYCAARRFYYYNAVYDYWGQGTQVTVSS | low polyreactivity
QVQLVESGGGLGQAGGSLRLSCAASGSIFGYNVMGWYRQAPGKERELVAGITSGGSTNYADSVKGRFTISRDNAKNTVSLQMNSLKPEDTAVYYCNAEGVFGDGRSGFYWYDYWGEGTQVTVSS | low polyreactivity
